Measurements: patent publication US20030045688A1, “Human interleukin-four induced protein” (priority 2000, published 2003)

Columns and labels:
[1] = system: murine B cell line (M.12.4.1); assay: Transfection of murine B cell line with vectors expressing mouse FIG. 1; cell toxicity; assay type: cell-based; settings: clones expressing FIG. 1 in the insoluble cell fraction; no stable transfectants obtained
Source text: A murine B cell line (M.12.4.1) and fibroblast line (NIH3T3) is transfected with vectors expressing mouse FIG. 1. Specifically, a 1985 bp BamHI fragment containing the full length mouse FIG. 1 cDNA is inserted into the BamHI site of the pREP9 vector (InVitrogen, Carlsbad, Calif.), resulting in pMN10-9, a plasmid that expresses FIG. 1 mRNA from the vector's RSV 3′ LTR promoter. A 1930 bp PvuII/EcoRI fragment containing the full length mouse FIG. 1 cDNA is inserted into the Ecl126II/EcoRI sites of pIRES2-EGFP (Clontech), resulting in plasmid mFIG. 1-iGFP (also known as pAFFP), a plasmid that expresses FIG. 1 mRNA from the vector's CMV promoter.
NIH 3T3 cells are transfected with plasmid DNA using the calcium phosphate method. In particular, a Calcium Phosphate Mammalian Cell Transfection Kit (5 Prime→3 Prime, Inc., Boulder, Colo.) or Calcium Phosphate Transfection System (Life Technologies, Inc., Rockville, Md.) is used. A 40 μg plasmid DNA/calcium phosphate precipitate is prepared according to manufacturer's protocol and used to transfect 2×10^6 cells. M12.4. 1 cells are transfected by electorporation or with an Effectene Transfection Reagent (Qiagen, Inc., Valencia, Calif.). […]
During the selection of M.12.1 bulk transfectants, LAAO activity is detected after 15 days, peaking at 17 days, declining after 20 days to undetectable using procedures described above. […]

[2] = FIG. 1 enzyme assay using OPD (L-amino acid oxidase activity); assay type: biochemical; settings: for substrate preference of LAAO activity: L-amino acid substrates; for pH optimum of L-amino acid oxidase (LAAO) activity: pH value at which activity is maximal
Experimental: 3,3′,5,5′-tetramethylbenzidine (TMB) or o-phenylenediamine (OPD) is used as a chromogenic substrate in the FIG. 1 assay. TMB is advantageous because it is not mutagenic and therefore not likely to be carcinogenic, whereas OPD and o-dianisidine are mutagenic.
To perform these measurements, we developed a FIG. 1 enzyme assay using OPD as a substrate.
For the FIG. 1 enzyme assay using OPD, 10 μl of sample is added to a 190 μl assay mixture resulting in a 200 μl reaction with final concentration of 5 to 50 mM L-phenylalanine (Sigma, St. Louis, Mo.), 10 U/ml peroxidase (Sigma), 0.5 mg/ml OPD (Sigma), and 52.5 mM sodium acetate (pH 4). The reaction is incubated for 2 hours at 37° C., after which the reaction is stopped by the addition of 11 μl 36N sulfuric acid (H2SO4). The quantity of H2O2 generated is determined by measuring absorbance at 490 nm. FIG. 1 enzyme activity in Units is determined by comparison with a standard curve generated using known concentrations of H2O2. The amount of H2O2 (μM) corresponding to the observed absorbance at 490 nm is the amount of L-phenylalanine oxidized, since one H2O2 molecule is produced per L-amino acid oxidized. Therefore, FIG. 1 enzyme units can be calculated as follows:
Units (μmol/min)=(μM)/min×V
One unit oxidizes one micromole of L-phenylalanine per minute at 37° C. and pH 4.

[3] = listed as interleukin four induced protein

B1: FIG. 1: mouse immediate early interleukin-four induced protein with L-amino acid oxidase activity (SEQ ID NO:1), expressed in transfected cells (protein, listed as Mus sp.)
chain: MAGLALRLVLAATLLGLAGSLDWKAASSLNPIEKCMEDHDYEQLLKVVTLGLNRTSKPQKVVVVGAGVAGLVAAKMLSDAGHKVTILEADNRIGGRIFTFRDEKTGWIGELGAMRMPSSHRILHKLCRTLGLNLTQFTQYDENTWTEVHNVKLRNYVVEKMPEKLGYNLNNRERGHSPEDIYQMALNKAFKDLKALGCKKAMNKFNKHTLLEYLLEEGNLSRPAVQLLGDVMSEEGFFYLSFAEALRAHACLSDRLRYSRIVGGWDLLPRALLSSLSGALLLNAPVVSITQGRNDVRVHIATSLHSEKTLTADVVLLTASGPALQRITFSPPLTRKRQEALRALHYVAASKVFLSFRRPFWHEEHIEGGHSNTDRPSRLIFYPARGEGSLLLASYTWSDAAAPFAGLSTDQTLRLVLQDVAALHGPVVFRLWDGRGVVKRWAEDPHSQGGFVVQPPLYGREAEDYDWSAPFGRIYFAGEHTALPHGWVETAVKSGLRAAVRINNNYGYGEVDPQMMEHAYAEANYLDQYPEGERPEEQQAREEVSPDEQEPSHKHLLVETSPEGQQHAFVEAIPELQGHVFVETVPQEKGHAHQNIYPSEHVQVHGEVIPEWHGHGGSGTPQMHRVGDHS
- cell death in FIG. 1 transfectants [1]: significant cell death
- substrate preference of LAAO activity [2]: prefers aromatic amino acids as a substrate, with phenylalanine (Phe) being the optimal substrate
- substrate preference of LAAO activity ([2]; listed as FIG. 1 protein): prefers aromatic L-amino acids for substrates, particularly L-phenylalanine
- substrate preference of LAAO activity [2, 3]: lesser specificity for other aromatic amino acids such as tyrosine and tryptophan
- LAAO activity at pH values other than the optimum ([2]; compared with pH 4.0): lower activity at pH 5, 8 and 9
- pH optimum of L-amino acid oxidase (LAAO) activity [2]: 4
- pH optimum of L-amino acid oxidase (LAAO) activity ([2]; listed as FIG. 1 protein): 4
- pH optimum of L-amino acid oxidase (LAAO) activity [2, 3]: 4.0
